Experimental data taken from the DeepSol protein solubility set.

Assay: soluble on expression in E. coli; label from the status in PepcDB or PDB records

Sequence	soluble on expression in E. coli
MQKTLSAIFLFTTLSANAAPYIGLELGIGTANHSFETNYQSDAVSLNPNMEDMFLGGLIGYKFNDNFSFEINYSSYKLEDQYSKFIGIESLNNQQYRKEHEWSSEIEAKQLALISVYSYPIHQQLKTNIKVGVTHTQYEAYSGKYEELELLLNDDIEIRKALLETGLKKNRFGALFSLGLDYNLIPELSVGTELRYQFDKYNDVLSISLNSKYYF	not soluble
SNAMADWVTGKVTKVQNWTDALFSLTVHAPINPFTAGQFTKLGLEIDGERVQRAYSYVNAPDNPNLEFYLVTVPQGKLSPRLAALKPGDEVQVVSDASGFFVLDEVPDCETLWMLATGTAIGPYLSILQYGQDVARFKNLVLVHAARFAADLSYLPLMLELQQRYEGKLRIQTVVSRENVPGSLTGRVPALIENGELEKAVGLPMDKETSHVMLCGNPQMVRDTQQLLKETRQMTKHLRRRPGHMTAEHYW	soluble
MKVDGRRPEDEVIRETNAHGVSVVHIKKDPTTQKVEIVKNSIFNRRITASTVMEFAGAAAGSSLLATRFSPAGRQTRGTHNNCGNGYTPWGTYLTTEENFIGYFQRSGSDEYARTDAEKIALKRYGLGVKKDEPYLYEKDEKGAPKKDKDGKIIYLKDKNGELIPNVDEQGRQIYLGTSSRYGWETAIGQVESQDLYDRWNADVKAAQATQDYRNGPNTFGWMVEIDPFDGRQNPVKRTSLGRFAHEDSACRAVVGQPLAFYMGDDSRGEYIYKFVSTAVWDTKDINGGYTAGDKYMNAGKLYVAKFNNDGSGQWIELAYGKNGLNESNTTYPFKSQADVVTFARLAADSVGATKMDRPEWCTVNPVNGEIYVTLTNNSNRGKDYATDAANPRNYTDLYAGTKEQKGNVNGHIIRFKETDDKTTAETFKWDIYLFGAEASMASNINLSGLTDNNDFSSPDGMWFDPRGVLWIETDDGAYTDVTNCMMLAALPGQIGDGGTATTSNGQQTITGAKVTDATLRRFLVGPKQCEITGIAMTPDYKAIFINVQHPGEDSPSYAKPESNWPATQKDPSNKTARPRSATVVITRKDGGVIAGLEHHHHHH	soluble
MGSDKIHHHHHHMAEFTHLVNERRSASNFLSGHPITKEDLNEMFELVALAPSAFNLQHTKYVTVLDQDVKEKLKQAANGQYKVVSSSAVLLVLGDKQAYQQAADIYEGLKVLGILNKQEYDHMVQDTVSFYENRGEQFKRDEAIRNASLSAMMFMLSAAAAGWDTCPMIGFDAEAVKRILNIDDQFEVVMMITIGKEKTESRRPRGYRKPVNEFVEYM	soluble
MISAPGIGSGLDVSGIISKLMEIEQQPLTQLNTKEAKQQAQLSAFGSLKSVLSTFQDSVKALAKPALFNGYKATLADTTAATVSTSSSASAGTHDIEVQSLAQAQKIKSEAFATTDTVIGSGTLTIEFGTYNEDGTFTANAEKTAKTITIDPAKSTLADIRSAINEANAGVTASIVNDGSGNRLVISSKDSGLANALKISVNDTDGNHTDNAGLSKLAFDASTGGVSNMTETVAARNAVMVIDGIPVTKSSNTINDALEGVTFNLLKANPGTTTTLTVEKDKSNVEAAVNAFVKAYNDLEKTIGNLSRYDAANKQASVLTGDSTMRMIQNRMRAMLGGNQSAAGGINSLSELGISFQKDGTLALDNNKLSAVLNNPDKNIAAFFTTQGGDDTTSVEGFASRLSELIDGMTRSDGLISSRMDGINSTIKGIGKQREALEFRLESVEKRLRAQFTALDTMIASMNQTSNYLQQQLANLPKIGE	not soluble
NNAKEALELCDKRDWDLAELSYRYELQFHTKEEICAYCLEIWEVMQEVYYNGTHPNEDYLPGKLHLKRRAKGLKERVAMTADPMGIIDFISLYAIAIAEENASGAKVVTAPTNGACAVIPAVMLYLKNHTIGFSDEKVIEFLLTAMLIGSFYKKNASISGAEAGCQAEIGSASSMAAAAMATVLGANAFKACNAAEMAMEHHLGLTCDPVAGLVQIPCIERNAFGAIKAISAARMAMTRKSTPMVSLDEVIETMYETGKDMNYKYKETSLGGLATN	not soluble
MAHHHHHHMFSSSTGAGAAAAAKPSAGPPSVALATVTVNEDPNIEVLLASKRIQKLTRATDALIARDFVLREEEAILDDLEAYIISLESEVRKAEFQTEELRSRSSLLRPGKRCAIAGENVELSALWNAYGSDMGYLVKRHSLRLAVLEKALATVSTRNPELPVPKPLPPPPVTKTSKTMSAMRDMSQRQKAPS	not soluble
MSLQGPNPIITVYSTQDYPILHAELASQVYLMDQVEQWENMISQRLSANPSVAAQQASQIFQSAEWKQSEEQLKRSYQGLISGWQNGIKKVPAVLFQYPGKEDSVIYGETNIAQALSLWQREITKEGTREGHHHHHH	soluble
MSLKKILVQWKNGPSQIGRMYPLPVFDEHDIVQLCSEVKDILRIQPAVIQRKPGVIIVGDLHGNFLNFLQIFAIHGLPPNQNYIFLGNYINYGEFSLEVVIYLFSLYYLFPSNISLLRGSTEFYPSKGPRSLSSNIDTTYGPNSILKSVFLETFTYLPIACLIGNSVLCSRSSLVSRYSNLQEIFHETLPIPCVVDQSHLFLSGLANVIPSEEVLEEFLATNNLNFLIFGGKNAGDGVENMLDDRCYALASDAHMGYCGIINLVGNQPPFAIIFTPDSDLLRENAQMLREGHHHHHH	not soluble
MKWSEYANLAQQSLEKFYLADTKEQFLNNFYPTENPEEDNKVFNYWWLAHLVEVRLDAYLRTKKQADLEVAEKTYLHNKNRNGGTLIHDFYDDMLWNALAAYRLYKATGKSIYLEDAQLVWQDLVDTGWNDIMGGGFAWRRPQMYYKNTPVNAPFIILSCWLYNELNETKYLEWAMKTYEWQTKVLVREDGFVEDGINRLEDGTIDYEWKFTYNQGVYIGANLELYRITKEAKYLDTANKTAAISLKELTEDGIFKDEGNGGDEGLFKGIFYRYFTDLIEETANKTYRDFVLNSCQILVENAKLDGYLLMGMNWKEKPSGKIPYSAELSGMIALEMAAKLELEHHHHHH	soluble
MKYTKGTYSSSAKGHSSNVNLTVNFDSDKIKNVSINVEGETSQRNKDVVSQLSAQILKKQDDSLDAVTGATETSNAVRRALTDCIKQATGDTENQTKTPLKDGTYTETVPSYSLIAPMTGEVTIKNNKIKNIKITSEKDSQTSPWFHVAEKKFIPRLIESQSLDTDAVTGASVSSGAIKSIAEKAIKDAGGNNDEWHTPVTKKNDTVEKKDFDVIVVGLGGSGILSYCAAAKSGAKVFGLDIAAGIGGNSISTSGPMVVNSKIQSKKYNDGKDNIDPEDLYNTWIDYVKTDKKAAVIKKAIYEDGPALDYYMKNFGFSFDSPAFGMPAGYFPSFVRQDWTKEWAVYTAKDNKWYSAGQPVHIDQYQNALDKAKGMNPVNDYQLELAAKDFIKDDSGKVIGVKAVSYDGTTYNIYGRAVILASGGFVGNNQMMKDVYGHTCHTFGSTTAKGQGIKMGQSIGGNTYALRTLPMIHISQVPNIIRDDSLTPDQKATLSALAITSDAKQIDETGNILGSKDESGIEESKLTVGIAYAPGFHYFNAYTKEDLDKMKNEGVSETTSKVVVIILDQGGKVPAAHTPIKDIDKIVDEAIKHGDAWKGTPSELAKQLNMDEAKLTKSLGDPNKEYYLFEAAGYAYATCGGLDVDEDMNVLRQDGSKIENVFAVGQDSEGVENRNDEAYTPWGGQAQAWTFVSGKIAGENAAKILEHHHHHH	soluble
MGSDKIHHHHHHMAGVMSRRLDVDALRALVAIERHGGVTRAAEILGLSQSAVSHKIRRLETSLDCEILTRKANAPMFTTAGQDLLGYARRILGIHDEAVLSLSKSPLQGKIALGMTEDTTCTDLSRILGRFRRLYPEVSVRTQVRMSLVLQEQLSQGALDAAIIQVFQHEVRPADILLFRETLHWVKSRDLVLSAGKPVPFLSFDENCFYRRWGIDVGQDEDTVLETVFECSSAAGIIAGVTAGLGVALLSQRYLQPAMEIVDDKFPKPPDLAYVIRRARVPRNPALETLVREIEAEVKRYGTLQIAV	not soluble
MSNNEIVFVTGNANKLKEVQSILTQEVDNNNKTIHLINEALDLEELQDTDLNAIALAKGKQAVAALGKGKPVFVEDTALRFDEFNGLPGAYIKWFLKSMGLEKIVKMLEPFENKNAEAVTTICFADSRGEYHFFQGITRGKIVPSRGPTTFGWDSIFEPFDSHGLTYAEMSKDAKNAISHRGKAFAQFKEYLYQNDF	not soluble
MAHHHHHHMGGCCKGARCPFSHELVQLPPKGVDASGGYFISGNVANYRAAASTSTASPSSRSFVGRWDDPTASSSTDGLSTLASPSSCCVTTGTSLSAEAKEWVGADSAATSSSANSATASITSVQSLRGAASPTFCVSSSSLRYRSAALRRTAQQVSPLPMPHSQRDSQPQPQQAQTQLQSQQSQKPQPSPPQPQLHQQHKRQYQPPPQPRSVANALSALLPNHSESSAAAETRHTSAAPAHPAATARTVSFTQSSNGSGSTTIAALASFFDMQRVSTGAPSATPSSAASQPSKVVFATRRDDQTPATAPTPATAAPPRYTAACITLAASNQRFDPSPSAPSIPTTATPAPAHGSSRSATTSQHMEAPLPRSREALATGAEHQTATVAKAHVTQSAAPPSAAAAPTSPPQYESRTASSAQTRVMPPAPRSQQQQAAHQAQQLRAQEEAQRQVQIQQQLHAQQQAQQLAQQQAQLQQFQQQIQPQKPPPPQQTVYMLTTSRPPTTSTPPHEGIVAPDQLPLGYTLAYAVSTPTPTASAATPILISEQPSAARPTYTLLSSCPPQSQLQSFQTAKGTVLYATPAQVLTQAAAPSENDAPRLILVNTDGTFTVLQAETLAATAGLGLSPTIMRAH	not soluble
MNGEEIIRFERVTKEYDGTVVLDDVSFAMERGKFYTLLGPSGCGKTTILRLIAGFIEPTEGTIYFHGKPIQNVPPNKRQVNTVFQDYALFPHLDVFENVAFGLRVKKMKEADIRQKVSEALRFVNLEGYERRRIQEMSGGQRQRVAIARAIVNEPEVLLLDEPLSALDLKLRTEMQYELRELQRRLGITFIFVTHDQEEALAMSDYIFVLNKGKIQQFGTPKDIYDEPINRFVADFIGESNILSGRMIDDFLVEFAGKQFACVDRGFAPNEPVDVVIRPEDLELAAPEDGQIVIRVDSLLFRGVHYEICGYDENGNEWLVHSTKKAEVGETVGLRFEPEAIHVMRVEREDEGA	soluble
MGKISIVGLGPGDYSLISQGVLESLINSPKVFFRTEKHPIIDKLKETIQYTSLDYFYEKEENFDNVYLKISEFIIEESAKGDLVYAVPGHPRVAEKTVSIIERLANEKHIAVEILPSMSFVDAMFNYLAIDPSEGFKLVDAFEIENSYIDLDTSMIITQVYDKFIASNVKLKLMEHYDYNQEVCIVNGAGVKDLESKKFIKLCELDRNENFFDYLTSLYIPKSSKKMYNTVHDLEIIVNTLRSPSGCEWDKKQTHQSLKNSVIEEAYELCNAIDNNDIDEMVEELGDVLLQVIFHCQIGNEEGYFDLKEVVNGICKKLIHRHPHIFSGAKLDMSKFEKTWEELKKEEKGESTITDGLRRIPKHLPALMKASKVQHKAALVGFDWDNVEDVFKKIEEEYQELLDEHRVGNIKYIKEELGDLLFSIVNLARFLDIDSGEALNCTTEKFINRFDFIEKSAMNLNKKLEDMTLEEMDEFWNQAKKQ	not soluble
SQEKVSIEQQLAVESIRKFLNSKTSYDVLPVSYRLIVLDTSLLVKKSLNVLLQNSIVSAPLWDSKTSRFAGLLTTTDFINVIQYYFSNPDKFELVDKLQLDGLKDIERALGVDQLDTASIHPSRPLFEACLKMLESRSGRIPLIDQDEETHREIVVSVLTQYRILKFVALNCRETHFLKIPIGDLNIITQDNMKSCQMTTPVIDVIQMLTQGRVSSVPIIDENGYLINVYEAYDVLGLIKGGIYNDLSLSVGEALMRRSDDFEGVYTCTKNDKLSTIMDNIRKARVHRFFVVDDVGRLVGVLTLSDILKYILLGS	soluble
